Results on 3 substances are retold here after article PMC2821400.

The test has as its target actin of the F-actin structures in focal adhesions of Vero cells (monkey (endogenous in Vero)) (UniProt Q76N69). Nature of the test: FRAP (fluorescence recovery after photobleaching); GFP-L-plastin variants bleached in a 5 µm spot in focal adhesions of live Vero cells, 37°C; curves fitted with a two-binding-state model, reaction dominant regime; pseudo-association rates k*on = kon·Seq.

In the case of “Ser5/Ala (S5/A) GFP-L-plastin, expressed in Vero cells (from UniProt P13796 1-627) (natural protein)”, the fold change of k*2on against WT- and S5/E-L-plastin is 2 fold lower; the k1off (dissociation rate, first quick binding state) was 0.073 s⁻¹; the k*1on (pseudo-association rate, first quick binding state) was 0.173 s⁻¹.
“Ser5/Glu (S5/E) GFP-L-plastin, expressed in Vero cells (from UniProt P13796 1-627) (natural protein)” registered a k1off (dissociation rate, first quick binding state) of 0.612 s⁻¹ and a k*1on (pseudo-association rate, first quick binding state) of 0.42 s⁻¹.
Regarding “wild type (WT) L-plastin fused to GFP, expressed in Vero cells (from UniProt P13796 1-627) (natural protein)”, the Feq (equilibrium normalized concentration of free molecules) amounted to 0.513; the k1off (dissociation rate, first quick binding state) stood at 0.616 s⁻¹; the k2off (dissociation rate, second slow binding state) worked out at 0.03 s⁻¹; the k*1on (pseudo-association rate, first quick binding state) stood at 0.338 s⁻¹. The substance further had a k*2on (pseudo-association rate, second slow binding state) of 0.01 s⁻¹.
